± gives the standard deviation.
Test: protein stability index of a GFP-peptide fusion (GPS, HEK-293T) (PSI 1-6); higher = more stable
[1] = treatment: DMSO, c terminus: native
[2] = treatment: MLN4924 1 uM, 8 h, c terminus: native
[3] = treatment: DMSO, c terminus: a fixed tail appended
[4] = treatment: MLN4924 1 uM, 8 h, c terminus: a fixed tail appended
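Also: 24-mer peptide tiles fused after GFP, lentivirally expressed, FACS-sorted into six equal bins by GFP/DsRed ratio, decoded by Illumina sequencing, PSI is the read-weighted mean bin number.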

Sequence | protein stability index [1] | protein stability index [2] | protein stability index [3] | protein stability index [4]
GEWGGRHPSWPWTRCLRMRPPRS | 2.81 ± 0.6 | 2.88 ± 0.36 | – | –
YWKLQIFFTNVIQALGEHLKLRQQ [CCNC] | – | – | 2.66 ± 0.84 | 2.46 ± 0.38
MAPDPVAAETAAQGPTPRYFTWDE [FADS1] | – | – | 4.7 ± 0.17 | 4.83 ± 0.27
YTDNSIRPEELLQMELLLVNKLKW [CCND1] | – | – | 2.14 ± 0.12 | 2.37 ± 0.29
QIEEVFISEEIQMSTKESDFLCLL [MIA2] | – | – | 2.51 ± 0.42 | 2.49 ± 0.37
DVPDLQSVCSCTCYRSQDYGGRSV [KCNK9] | – | – | 2.5 ± 0.36 | 2.81 ± 0.67
EVPDSYTGPRLSFPLLPDHATALV [PPEF2] | – | – | 3.23 ± 0.27 | 3.42 ± 0.28
SLRQKQPERLCSGPGIVGNVLVDP [GMPPB] | – | – | 3.65 ± 0.2 | 3.46 ± 0.15
DRDMFFKICESLNVPVDDSLVKEL [EFHC1] | – | – | 3.22 ± 0.29 | 3.3 ± 0.18
PPWGLGPGAGDPAPGIGPPEPWPG [MYCL] | – | – | 3.63 ± 0.39 | 3.92 ± 0.058
QLAEENERLKQEIERLTREVEATR [DDIT3] | – | – | 5.4 ± 0.26 | 5.51 ± 0.32
NQAAIMELDDTLKYSFLQFDPAPR [PPP2CA] | – | – | 3.25 ± 0.17 | 3.38 ± 0.21
EEIVFNLTNNVDLDNTKKKMEIYQ [MNAT1] | – | – | 4.05 ± 0.39 | 4.02 ± 0.35
SNKVQDSAPVETPRGKPPLNTRSQ [HMOX1] | – | – | 5.21 ± 0.38 | 5.26 ± 0.27
VTKVTAVDADAGHNAWLSYSLLPQ [PCDHGC5] | – | – | 2.41 ± 0.39 | 2.29 ± 0.21
MLELRHRGSCPGPREAVSPPHREG [CDS1] | – | – | 4.26 ± 0.29 | 4.39 ± 0.29
MFQGWNCGDYFPDGITNGASWYSL [CPN1] | – | – | 2.7 ± 0.37 | 2.31 ± 0.45
AAPFPSPAPASPAISVVGVSAGGH [TFE3] | – | – | 4.24 ± 0.35 | 4.16 ± 0.38
QCSQRMLSFSDALLSIIATVMILP [TMEM175] | – | – | 3.25 ± 0.4 | 3.33 ± 0.3
ELLSAPPPDLGAQRRHGWNPKDCS [SPSB2] | – | – | 3.72 ± 0.14 | 3.48 ± 0.25
LASGRIILILEGGYNLTSISESMA [HDAC6] | – | – | 2.63 ± 0.14 | 2.82 ± 0.79
KDHSSSRPSSPRPQKASPNGSISS [BTBD10] | – | – | 5.1 ± 0.42 | 4.71 ± 0.97
MKLEKEEFVTLKAIALANSDSMHI [ESRRG] | – | – | 2.46 ± 0.22 | 2.48 ± 0.28

Sequence | protein stability index [1] | protein stability index [2] | protein stability index [3] | protein stability index [4]
VSAIIWEGNECKKMDMSVLEISGI [PHTF1] | – | – | 2.11 ± 0.58 | 2.41 ± 0.83
ALGKLLPRETLCTELVLSDCMLSE [LRRC45] | – | – | 2.22 ± 0.32 | 2.67 ± 0.45
AAIDNGLAFPLKHPDSWRAYPFYW [PI4K2A] | – | – | 2.27 ± 0.18 | 2.26 ± 0.2
IRERPAAIPIEIKSIDDTSNFDDF [STK38L] | – | – | 4.31 ± 0.3 | 4.92 ± 0.19
EGCELPDLPSSLLLPEDMALRNLP [SMG5] | – | – | 4.4 ± 0.1 | 4.49 ± 0.15
QLAAVHLSKSRTDYQPTQAGRLMR [RNF180] | – | – | 3.5 ± 0.18 | 3.52 ± 0.26
PSEWRPLSEGCRAELAETIVYARV [CCDC3] | – | – | 3.14 ± 0.32 | 2.51 ± 0.23
SISDVKFSHSGRYIMTRDYLTVKV [PPP2R2B] | – | – | 2.37 ± 0.47 | 2.52 ± 0.57
SSHLQSSKAGPTRIFTSNTHSSVV [KLHL13] | – | – | 3.52 ± 0.22 | 3.52 ± 0.2
SRIKVLETSYQQREERLRRENEEL [FBF1] | – | – | 4.9 ± 0.18 | 5.07 ± 0.26
DVTADSKVLEALKLKGAEVTYMNM [PLD5] | – | – | 3.57 ± 0.21 | 3.44 ± 0.29
VLAIIAREGDCAPEEKIWEELSVL [MAGEA3] | – | – | 2.62 ± 0.48 | 2.42 ± 0.4
NPVFQDSWDTESSGSDSGGSSSSS [FAM104A] | – | – | 5.37 ± 0.37 | 5.54 ± 0.26
EPMRDQVARTHLTEDTPKVNADIE [NSDHL] | – | – | 5.32 ± 0.34 | 5.56 ± 0.075
QVGAKGDTANEIGQVLHFENVKDV [SERPINB5] | – | – | 4.94 ± 0.37 | 5.19 ± 0.24
ADTNSDRLFTVNDVKVGGSKYGII [DCAF4] | – | – | 3.01 ± 0.21 | 3.02 ± 0.28
RRCRRCVCALCPVLGAHRGHPVGL [TRIM14] | – | – | 2.54 ± 0.33 | 2.59 ± 0.38
MNIIELEIPDQNIDVEALQVAFGS [GMCL1] | – | – | 2.86 ± 0.31 | 2.73 ± 0.072
SPIKLSPTSPVYRGSSSGPSSPAR [MTUS2] | – | – | 4.34 ± 0.21 | 4.39 ± 0.2
NKPGCEHECVNMEESYYCRCHRGY [MATN2] | – | – | 4.3 ± 0.72 | 4.24 ± 0.22
PVPPSEGKSRLSPAGEMKPMPLSE [BCL2L13] | – | – | 5.13 ± 0.22 | 5.08 ± 0.073
MAPPAAPGRDRVGREDEDGWETRG [HES6] | – | – | 5.2 ± 0.37 | 5.48 ± 0.16
FFPQHPNFCEPQDYRPMNHEAFKD [CDC25B] | – | – | 3.81 ± 0.33 | 4.09 ± 0.21

Sequence | protein stability index [1] | protein stability index [2] | protein stability index [3] | protein stability index [4]
LPLSHIAAQMMDIWVPIKIGALTY [ACSBG2] | – | – | 2.79 ± 0.76 | 2.73 ± 0.82
WLPLATLIDEKVLILHGGVSDITD [PPEF2] | – | – | 2.22 ± 0.64 | 2.4 ± 0.58
TRLAFELFAEEQAEGPNRLLYKDG [LPCAT4] | – | – | 3.85 ± 0.19 | 4.02 ± 0.2
STSDSDLTCDSSTSSSDDDEEVSG [C18orf25] | – | – | 5.22 ± 0.21 | 5.28 ± 0.13
VCRDSVSRKGELTPLPETGYWRVR [TRIM39] | – | – | 2.55 ± 0.1 | 2.71 ± 0.57
GSGSSYVQNGTGNAYEEEANKQS [CNOT7] | 5.37 ± 0.19 | 5.2 ± 0.23 | – | –
PVYVSCIAQDTCTTTDHSSNPGPV [SPAG8] | – | – | 3.75 ± 0.39 | 3.9 ± 0.33
VCVIAIGVVQALIVGYAFHFPHLL [TMEM175] | – | – | 3.11 ± 0.62 | 3.09 ± 0.4
YPPPPPALPSSAPSGPPPPPPSVL [WASL] | – | – | 4.54 ± 0.2 | 4.5 ± 0.16
IQIAFEEVPQLPPRASISHVTCVD [C2CD2L] | – | – | 2.39 ± 0.16 | 2.46 ± 0.23
SLGLSHSTDIGALMYPSYTFSGDV [MMP1] | – | – | 3.15 ± 0.4 | 3.19 ± 0.46
SISEKLSSTNFAMKRDVQEGQARC [C8orf76] | – | – | 4.41 ± 0.23 | 4.29 ± 0.22
INPYSNRESRILFSTWNLDHIIEK [DFFB] | – | – | 2.54 ± 0.1 | 2.61 ± 0.099
EGSADTEDRKLPAPGADVKVHRAR [EHMT1] | – | – | 5.27 ± 0.44 | 5.41 ± 0.17
KAILKNISVLAFSVCFIFTITIGM [SLC29A1] | – | – | 3.19 ± 0.29 | 2.96 ± 0.44
ALLQAMKDLDGMDADILGLKKSNS [FBF1] | – | – | 2.83 ± 0.78 | 2.82 ± 0.29
AQTNPTPGSLGPWKITIYDQENFQ [CRYBA1] | – | – | 3.18 ± 0.41 | 3.3 ± 0.2
GEEGAPGKWQQQGDLQDTKENREE [CHGB] | – | – | 5.57 ± 0.31 | 5.52 ± 0.28
AGLVHVKQCIVAHPVNPPYYIPLV [CRYL1] | – | – | 2.46 ± 0.33 | 2.36 ± 0.54
CHLCNYACRRRDALTGHLRTHSVI [IKZF1] | – | – | 3.06 ± 0.26 | 3.15 ± 0.4
KRYESHPVCADLQAKILQCYRENT [CHCHD3] | – | – | 3.18 ± 0.23 | 3.55 ± 0.26
PGEPNNAGNNEHCGNIKAPSLQAW [CD207] | – | – | 4.38 ± 0.12 | 4.21 ± 0.078
HPVCSLCWSRDGHKLVSASTDNIV [RBBP5] | – | – | 2.72 ± 0.28 | 2.95 ± 0.44

Sequence | protein stability index [1] | protein stability index [2] | protein stability index [3] | protein stability index [4]
RTERVEQAFRAIDRGDYYLEGYRD [PCMTD1] | – | – | 3.77 ± 0.17 | 3.82 ± 0.17
FRDEKDYPASTSQDSFEAAGNSTS [KCNA3] | – | – | 5.55 ± 0.25 | 5.47 ± 0.077
VCSDYASGYHYGVWSCEGCKAFFK [ESR2] | – | – | 2.33 ± 0.35 | 2.56 ± 0.34
LDNSRSILKRRYYRQHCTLELGSY [CTDNEP1] | – | – | 2.34 ± 0.45 | 2.42 ± 0.31
ERYQKIGDTKRATPIEVLCENFPE [CSNK1G3] | – | – | 4.59 ± 0.11 | 4.44 ± 0.28
CYAAMKKKIYAMGGGSYGKLFESV [GAN] | – | – | 2.16 ± 0.39 | 2.23 ± 0.45
ARQELLGDRPRWQRLLGEDKFQWL [ANKRD9] | – | – | 2.66 ± 0.46 | 2.98 ± 0.31
CERVVINVSGLRFETQMKTLAQFP [KCNA4] | – | – | 2.55 ± 0.42 | 2.51 ± 0.77
IVGYAFHFPHLLSPQIQRSAHRAL [TMEM175] | – | – | 2.23 ± 0.24 | 2.54 ± 0.51
DAASLRRQIIKLNRRLQLLEEENK [MFF] | – | – | 3.35 ± 0.19 | 3.68 ± 0.55
TTIKRKREDDKLVVECVMKGVTST [FABP4] | – | – | 3.9 ± 0.52 | 3.9 ± 0.19
VFQHHQYLSPLERKRLAREMQLSE [VENTX] | – | – | 2.81 ± 0.26 | 3.08 ± 0.37
FAVGYIKISWSTWGEMTLSLFSLL [SLC19A2] | – | – | 3.18 ± 0.6 | 3.15 ± 0.34
TPGIDLTRVLAEMREQYEAMAERN [KRT13] | – | – | 4.13 ± 0.49 | 4.4 ± 0.32
STSFLPELSSVHPPHYFFTYRIRI [FBXO3] | – | – | 2.66 ± 0.33 | 2.85 ± 0.48
IVSTQITRPSGNNGNRRRRKLRKT [PHTF1] | – | – | 4.35 ± 0.35 | 4.46 ± 0.23
LKVVHELPACTLCAGPLEDAVTIP [TRIM15] | – | – | 2.76 ± 0.13 | 3.15 ± 0.26
LTPKSTPVKTLPFSPSQFLNFWNK [MYBL2] | – | – | 2.24 ± 0.26 | 2.4 ± 0.18
GFHKAGSMLPPVNFSIVPYEKKFD [SPATS1] | – | – | 3.64 ± 0.087 | 3.54 ± 0.054
KRIKVPDYKDRSVFGVPLTVNVQR [DLC1] | – | – | 3.02 ± 0.42 | 3.09 ± 0.35

— the supplement of paper PMC10567573
